Series [1] addresses T1, LmGSTs5 (Locusta migratoria, UniProt F4YUJ4).
T1 construct: E. coli JM109
T1 sequence (F4YUJ4 1-202): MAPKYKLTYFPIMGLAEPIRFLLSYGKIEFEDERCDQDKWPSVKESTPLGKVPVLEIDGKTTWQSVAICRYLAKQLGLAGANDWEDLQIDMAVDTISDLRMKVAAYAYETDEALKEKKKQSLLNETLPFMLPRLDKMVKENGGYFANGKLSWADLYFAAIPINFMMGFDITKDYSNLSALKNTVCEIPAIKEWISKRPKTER
Briefly: inhibition of CDNB-GSH conjugation, absorbance […] nm. It counts as biochemical. The note with it: read-out: I50.

In series [2] the target is T2, LmGSTt1 (Locusta migratoria, UniProt F4YUJ7).
T2 construct: E. coli BL21 (DE3)
T2 sequence (F4YUJ7 1-231): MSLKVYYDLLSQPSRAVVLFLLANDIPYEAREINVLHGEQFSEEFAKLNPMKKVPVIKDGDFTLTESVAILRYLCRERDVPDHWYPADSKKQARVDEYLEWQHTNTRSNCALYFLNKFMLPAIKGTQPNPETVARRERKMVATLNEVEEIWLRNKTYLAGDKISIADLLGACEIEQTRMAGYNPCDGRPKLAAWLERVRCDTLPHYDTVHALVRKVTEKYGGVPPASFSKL
The description is as above. The note with it: read-out: I50. The series is classed as biochemical.

The target in series [3] is T3, LmGSTd1 (Locusta migratoria, UniProt E7BTM5).
T3 construct: E. coli JM109
T3 sequence (E7BTM5 1-218): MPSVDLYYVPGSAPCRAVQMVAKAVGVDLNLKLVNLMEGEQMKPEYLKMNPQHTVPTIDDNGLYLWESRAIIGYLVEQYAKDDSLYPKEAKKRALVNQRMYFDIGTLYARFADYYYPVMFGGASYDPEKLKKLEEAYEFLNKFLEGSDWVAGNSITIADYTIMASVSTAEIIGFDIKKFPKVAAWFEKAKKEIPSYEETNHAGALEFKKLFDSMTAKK
The series is described as above. The series is classed as biochemical. The note with it: read-out: I50.

Series [4] addresses T4, LmGSTu1 (Locusta migratoria, UniProt F4YUI9).
T4 construct: E. coli BL21 (DE3)
T4 sequence (F4YUI9 1-214): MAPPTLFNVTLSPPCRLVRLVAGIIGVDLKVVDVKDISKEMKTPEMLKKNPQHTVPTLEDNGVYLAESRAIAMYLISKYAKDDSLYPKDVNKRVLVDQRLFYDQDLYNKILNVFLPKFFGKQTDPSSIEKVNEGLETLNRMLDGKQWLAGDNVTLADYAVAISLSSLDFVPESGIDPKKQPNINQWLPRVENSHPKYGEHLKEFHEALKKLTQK
The series is described as above. It counts as biochemical. The following applies: read-out: I50.

Series [5] deals with T1, LmGSTs5. Briefly: GSH conjugation, absorbance […] nm, non-linear regression. It counts as biochemical. The following applies: read-out: CDNB / Km; 5 mM GSH, pH 7.5, 28°C; apparent.
In series [6] the target is T3, LmGSTd1. The series is described as above. The series is classed as biochemical. The note with it: read-out: CDNB / Km; 5 mM GSH, pH 7.5, 28°C; apparent.
Series [7] concerns the target T4, LmGSTu1. Described as above. It counts as biochemical. The following applies: read-out: CDNB / Km; 5 mM GSH, pH 7.5, 28°C; apparent.
For series [8], the target named is T2, LmGSTt1. The description is as above. The series is classed as biochemical. The following applies: read-out: CDNB / Km; 5 mM GSH, pH 7.5, 28°C; apparent.
Substrate in series [9]: O=[N+]([O-])c1ccc(Cl)c(Cl)c1
Briefly: purified protein. The following applies: 5 mM GSH, pH 7.5, 28°C, apparent.

Substrate in series [10]: O=[N+]([O-])c1ccc(CCl)cc1
Briefly: purified protein. The following applies: 5 mM GSH, pH 7.5, 28°C, apparent.

Substrate in series [11]: O=[N+]([O-])c1ccc(Cl)c(Cl)c1
Briefly: purified protein. The series is classed as biochemical, Locusta migratoria. The note with it: 5 mM GSH, pH 7.5, 28°C, apparent.

Substrate in series [12]: O=[N+]([O-])c1ccc(CCl)cc1
Briefly: purified protein. It counts as biochemical, Locusta migratoria. The note with it: 5 mM GSH, pH 7.5, 28°C, apparent.

Setting [13] is: 2 mM CDNB, 5 mM GSH, 0.1 M phosphate pH 7.5, 28°C.

Read-outs that look alike come from different tables or passages of the source.

The Vmax is the top rate of the reaction or transport when substrate is in excess.

Consider `C=C(CC)C(=O)c1ccc(OCC(=O)O)c(Cl)c1Cl` [ethacrynic acid], for which the IC50 is 33.8 µM on LmGSTs5 [1], 4.7 µM at LmGSTt1 [2], 2.2 µM at LmGSTd1 [3] and 3.27 µM on LmGSTu1 [4].

Regarding reactive blue, the IC50 at LmGSTs5 [1] (setting [13]) worked out at 0.98 µM; at LmGSTt1 [2] (setting [13]), 12.4 µM; on LmGSTd1 [3] (setting [13]) it was 4.58 µM; at LmGSTu1 [4] (setting [13]) it was 3.4 µM.

With `O=[N+]([O-])c1ccc(Cl)c([N+](=O)[O-])c1` [CDNB, 1-chloro-2,4-dinitrobenzene], the Km on LmGSTs5 [5] turned out to be 1170 ± 290 µM; at LmGSTd1 [6], 500 ± 25 µM; on LmGSTu1 [7] it was 250 ± 25 µM; at LmGSTt1 [8] it was 4730 ± 350 µM.

B1: LmGSTu1 (Locusta migratoria) (protein)
chain: MAPPTLFNVTLSPPCRLVRLVAGIIGVDLKVVDVKDISKEMKTPEMLKKNPQHTVPTLEDNGVYLAESRAIAMYLISKYAKDDSLYPKDVNKRVLVDQRLFYDQDLYNKILNVFLPKFFGKQTDPSSIEKVNEGLETLNRMLDGKQWLAGDNVTLADYAVAISLSSLDFVPESGIDPKKQPNINQWLPRVENSHPKYGEHLKEFHEALKKLTQK
Consider B1, for which the Km in “purified protein [9]” worked out at 730 ± 64 µM; in the series “purified protein [10]”, 1580 ± 170 µM. Moreover, the Vmax came to 0.00098 µmol/min/mg in “purified protein [9]” and 0.00677 µmol/min/mg in “purified protein [10]”.

B2: LmGSTd1 (Locusta migratoria) (protein)
chain: MPSVDLYYVPGSAPCRAVQMVAKAVGVDLNLKLVNLMEGEQMKPEYLKMNPQHTVPTIDDNGLYLWESRAIIGYLVEQYAKDDSLYPKEAKKRALVNQRMYFDIGTLYARFADYYYPVMFGGASYDPEKLKKLEEAYEFLNKFLEGSDWVAGNSITIADYTIMASVSTAEIIGFDIKKFPKVAAWFEKAKKEIPSYEETNHAGALEFKKLFDSMTAKK
notes: E. coli JM109
For B2, in “purified protein [11]”, the Km amounted to 1000 ± 87 µM and the Vmax stood at 0.0004 µmol/min/mg. Moreover, in the series “purified protein [12]”, the Km was determined as 6380 ± 570 µM and the Vmax came to 0.049 µmol/min/mg.

B3: LmGSTs5 (Locusta migratoria) (protein)
chain: MAPKYKLTYFPIMGLAEPIRFLLSYGKIEFEDERCDQDKWPSVKESTPLGKVPVLEIDGKTTWQSVAICRYLAKQLGLAGANDWEDLQIDMAVDTISDLRMKVAAYAYETDEALKEKKKQSLLNETLPFMLPRLDKMVKENGGYFANGKLSWADLYFAAIPINFMMGFDITKDYSNLSALKNTVCEIPAIKEWISKRPKTER
B3: in the series “purified protein [9]”, the Km is 1730 ± 240 µM and the maximal velocity (Vmax) came out at 0.00741 µmol/min/mg. In addition, in “purified protein [10]”, the Km was 470 ± 83 µM and the maximum rate (Vmax) came to 0.156 µmol/min/mg.

B4: LmGSTt1 (Locusta migratoria) (protein)
chain: MSLKVYYDLLSQPSRAVVLFLLANDIPYEAREINVLHGEQFSEEFAKLNPMKKVPVIKDGDFTLTESVAILRYLCRERDVPDHWYPADSKKQARVDEYLEWQHTNTRSNCALYFLNKFMLPAIKGTQPNPETVARRERKMVATLNEVEEIWLRNKTYLAGDKISIADLLGACEIEQTRMAGYNPCDGRPKLAAWLERVRCDTLPHYDTVHALVRKVTEKYGGVPPASFSKL
On to B4, for which, in “purified protein [10]”, the Km was 7850 ± 1080 µM and the Vmax worked out at 0.00143 µmol/min/mg.

The values are drawn from publication PMC3591310, “Characterization and Functional Analysis of Four Glutathione S-Transferases from the Migratory Locust, Locusta migratoria” (PLoS ONE, 2013).
